In IntAct's records for PubMed 14597414:

B1: Prelamin-A/C (Homo sapiens), P02545 (parent)
chain: METPSQRRATRSGAQASSTPLSPTRITRLQEKEDLQELNDRLAVYIDRVRSLETENAGLRLRITESEEVVSREVSGIKAAYEAELGDARKTLDSVAKERARLQLELSKVREEFKELKARNTKKEGDLIAAQARLKDLEALLNSKEAALSTALSEKRTLEGELHDLRGQVAKLEAALGEAKKQLQDEMLRRVDAENRLQTMKEELDFQKNIYSEELRETKRRHETRLVEIDNGKQREFESRLADALQELRAQHEDQVEQYKKELEKTYSAKLDNARQSAERNSNLVGAAHEELQQSRIRIDSLSAQLSQLQKQLAAKEAKLRDLEDSLARERDTSRRLLAEKEREMAEMRARMQQQLDEYQELLDIKLALDMEIHAYRKLLEGEEERLRLSPSPTSQRSRGRASSHSSQTQGGGSVTKKRKLESTESRSSFSQHARTSGRVAVEEVDEEGKFVRLRNKSNEDQSMGNWQIKRQNGDDPLLTYRFPPKFTLKAGQVVTIWAAGAGATHSPPTDLVWKAQNTWGCGNSLRTALINSTGEEVAMRKLVRSVTVVEDDEDEDGDDLLHHHHGSHCSSSGDPAEYNLRSRTVLCGTCGQPADKASASGSGAQVGGPISSGSSASSVTVTRSYRSVGGSGGGSFGDNLVTRSYLLGNSSPRTQSPQNCSIM
partner: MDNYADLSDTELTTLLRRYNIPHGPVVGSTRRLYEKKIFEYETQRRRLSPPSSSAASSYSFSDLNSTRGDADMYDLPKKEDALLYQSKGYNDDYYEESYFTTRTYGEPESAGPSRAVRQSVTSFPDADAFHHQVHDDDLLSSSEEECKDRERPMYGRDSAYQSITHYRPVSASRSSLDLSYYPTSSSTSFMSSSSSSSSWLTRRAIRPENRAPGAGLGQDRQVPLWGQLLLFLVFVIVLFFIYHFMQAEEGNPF

Variants of: B1
Conditions: with emd_human EMD

effect of a mutation on the interaction	Variant
decreasing interaction strength	R482L
